{"source": "patent US20230293638A1", "about": "(Eli Lilly, published 2023)", "binders": {"B1": {"name": "Peptide 22 (peptide)", "peptide": "Y[Aib]EGTFTSDYSI[αMeL]LDEK([AEEA-AEEA-γGlu-C20 diacid])AQ[αMeK]AFIEYLLE[Aib]GPSSGAPPPS-NH2", "modifications": "N-terminus assumed", "SMILES": "CC[C@H](C)[C@H](NC(=O)[C@H](Cc1ccccc1)NC(=O)[C@H](C)NC(=O)[C@](C)(CCCCN)NC(=O)[C@H](CCC(N)=O)NC(=O)[C@H](C)NC(=O)[C@H](CCCCNC(=O)COCCOCCNC(=O)COCCOCCNC(=O)CC[C@H](NC(=O)CCCCCCCCCCCCCCCCCCC(=O)O)C(=O)O)NC(=O)[C@H](CCC(=O)O)NC(=O)[C@H](CC(=O)O)NC(=O)[C@H](CC(C)C)NC(=O)[C@](C)(CC(C)C)NC(=O)[C@@H](NC(=O)[C@H](CO)NC(=O)[C@H](Cc1ccc(O)cc1)NC(=O)[C@H](CC(=O)O)NC(=O)[C@H](CO)NC(=O)[C@@H](NC(=O)[C@H](Cc1ccccc1)NC(=O)[C@@H](NC(=O)CNC(=O)[C@H](CCC(=O)O)NC(=O)C(C)(C)NC(=O)[C@@H](N)Cc1ccc(O)cc1)[C@@H](C)O)[C@@H](C)O)[C@@H](C)CC)C(=O)N[C@@H](CCC(=O)O)C(=O)N[C@@H](Cc1ccc(O)cc1)C(=O)N[C@@H](CC(C)C)C(=O)N[C@@H](CC(C)C)C(=O)N[C@@H](CCC(=O)O)C(=O)NC(C)(C)C(=O)NCC(=O)N1CCC[C@H]1C(=O)N[C@@H](CO)C(=O)N[C@@H](CO)C(=O)NCC(=O)N[C@@H](C)C(=O)N1CCC[C@H]1C(=O)N1CCC[C@H]1C(=O)N1CCC[C@H]1C(=O)N[C@@H](CO)C(N)=O"}, "B2": {"name": "Peptide 172 (peptide)", "peptide": "YXEGTXTSDHSIXLDXKAQXTFIXYLIEGGPSSGAPPPS", "modifications": "Aib2; αMeF(2F)6; αMeL13; Dab16; K17((2-[2-(2-Amino-ethoxy)-ethoxy]-acetyl)2-(γGlu)-CO-(CH2)18-CO2H); Aib20; D-Glu24; C-terminal NH2"}, "B3": {"name": "Peptide 207 (peptide)", "peptide": "YXEGTXTSDXSIXLDEKAQXEFIXYLIEGGPSSGAPPPS", "modifications": "Aib2; αMeF(2F)6; 4Pal10; αMeL13; K17((2-[2-(2-Amino-ethoxy)-ethoxy]-acetyl)2-(εK)-CO-(CH2)18-CO2H); Aib20; D-Glu24; C-terminal NH2"}, "B4": {"name": "Peptide 174 (peptide)", "peptide": "YXEGTXTSDHSIXLDEKAQXTFIXYLIEGGPSSGAPPPS", "modifications": "Aib2; αMeF(2F)6; αMeL13; K17((2-[2-(2-Amino-ethoxy)-ethoxy]-acetyl)2-CO-(CH2)18-CO2H); Aib20; D-Glu24; C-terminal NH2"}, "B5": {"name": "Peptide 189 (peptide)", "peptide": "YXEGTXTSDXSIXLDEKAQXEFIXYLIEGGPSSGAPPPS", "modifications": "Aib2; αMeF(2F)6; 4Pal10; αMeL13; K17((2-[2-(2-Amino-ethoxy)-ethoxy]-acetyl)2-(γGlu)-CO-(CH2)18-CO2H); Aib20; Aib24; C-terminal NH2"}, "B6": {"name": "Peptide 204 (peptide)", "peptide": "YXEGTXTSDXSIXLDEKAQXEFIXYLIEGGPSSGAPPPS", "modifications": "Aib2; αMeF(2F)6; 4Pal10; αMeL13; K17((2-[2-(2-Amino-ethoxy)-ethoxy]-acetyl)2-(γGlu)-CO-(CH2)16-CO2H); Aib20; D-Glu24; C-terminal NH2"}, "B7": {"name": "Peptide 182 (peptide)", "peptide": "YXEGTXTSDXSIXLDEKAQXEFIXYLIEGGPSSGAPPPS", "modifications": "Aib2; αMeF(2F)6; 4Pal10; αMeL13; K17((2-[2-(2-Amino-ethoxy)-ethoxy]-acetyl)2-(γGlu)-CO-(CH2)18-CO2H); Aib20; D-Glu24; C-terminal NH2"}, "B8": {"name": "Peptide 206 (peptide)", "peptide": "YXEGTXTSDXSIXLDEKAQXEFIXYLIEGGPSSGAPPPS", "modifications": "Aib2; αMeF(2F)6; 4Pal10; αMeL13; K17((2-[2-(2-Amino-ethoxy)-ethoxy]-acetyl)2-CO-(CH2)18-CO2H); Aib20; D-Glu24; C-terminal NH2"}, "B9": {"name": "Peptide 202 (peptide)", "peptide": "YXEGTXTSDXSIXLDKKAQXEFIXYLIEGGPSSGAPPPS", "modifications": "Aib2; αMeF(2F)6; 4Pal10; αMeL13; K17((2-[2-(2-Amino-ethoxy)-ethoxy]-acetyl)-(γGlu)-(2-[2-(2-Amino-ethoxy)-ethoxy]-acetyl)-CO-(CH2)18-CO2H); Aib20; D-Glu24; C-terminal NH2"}, "B10": {"name": "Peptide 203 (peptide)", "peptide": "YXEGTXTSDXSIXLDKKAQXEFIXYLIEGGPSSGAPPPS", "modifications": "Aib2; αMeF(2F)6; 4Pal10; αMeL13; K17((2-[2-(2-Amino-ethoxy)-ethoxy]-acetyl)2-(γGlu)-CO-(CH2)18-CO2H); Aib20; D-Glu24; C-terminal NH2"}, "B11": {"name": "Peptide 176 (peptide)", "peptide": "YXEGTXTSDHSIXLDEKAQXTFIXYLIEGGPSSGAPPPS", "modifications": "Aib2; αMeF(2F)6; αMeL13; K17((2-[2-(2-Amino-ethoxy)-ethoxy]-acetyl)2-(εK)-CO-(CH2)16-CO2H); Aib20; D-Glu24; C-terminal NH2"}}, "biological_target": "human GLP-1 receptor (human, UniProt P43220 24-463)", "assay": "cell-based or functional assay", "note": "Numbered stars: 1 amine (or outer) side, 2 acyl side, 3 side chain; on linkers, the order of the positions; unused ones are H or OH. Square brackets hold non-standard residues; d marks the D form. Side chains are listed from the residue outwards. Ends that are not written are not given here. * marks the point of attachment. C20 diacid = O=C(O)CCCCCCCCCCCCCCCCCCC(=O)*; γGlu = O=C(O)[C@H](CCC(=O)[*:2])N[*:1]; αMeL = CC(C)C[C@](C)(N)C(=O)O; αMeK = C[C@](N)(CCCCN)C(=O)O; AEEA = NCCOCCOCC(=O)O; Aib = CC(C)(N)C(=O)O"}
{"binder": "B1", "values": [{"measurement": "hGLPIR cAMP EC50 ratio", "value": 0.29}]}
{"binder": "B2", "values": [{"measurement": "hGLPIR cAMP EC50 ratio", "value": 0.038}]}
{"binder": "B3", "values": [{"measurement": "hGLPIR cAMP EC50 ratio", "value": 1.23}]}
{"binder": "B4", "values": [{"measurement": "hGLPIR cAMP EC50 ratio", "value": 0.0968}]}
{"binder": "B5", "values": [{"measurement": "hGLPIR cAMP EC50 ratio", "value": 0.668}]}
{"binder": "B6", "values": [{"measurement": "hGLPIR cAMP EC50 ratio", "value": 0.689}]}
{"binder": "B7", "values": [{"measurement": "hGLPIR cAMP EC50 ratio", "value": 0.873}]}
{"binder": "B8", "values": [{"measurement": "hGLPIR cAMP EC50 ratio", "value": 1.42}]}
{"binder": "B9", "values": [{"measurement": "hGLPIR cAMP EC50 ratio", "value": 0.712}]}
{"binder": "B10", "values": [{"measurement": "hGLPIR cAMP EC50 ratio", "value": 0.671}]}
{"binder": "B11", "values": [{"measurement": "hGLPIR cAMP EC50 ratio", "value": 0.0427}]}
